Experimental findings from article doi:10.1101/2023.03.06.531428 (bioRxiv, 2023) are described below.

Sequences and labels used below:
B1: ADAMTS-7-FLAG (enzyme)
chain: APGPAPGRATEGRAALDIVHPVRVDAGGSFLSYELWPRALRKRDVSVRRDAPAFYELQYRGRELRFNLTANQHLLAPGFVSETRRRGGLGRAHIRAHTPACHLLGEVQDPELEGGLAAISACDGLKGVFQLSNEDYFIEPLDSAPARPGHAQPHVVYKRQAPERLAQRGDSSAPSTCGVQVYPELESRRERWEQRQQWRRPRLRRLHQRSVSKEKWVETLVVADAKMVEYHGQPQVESYVLTIMNMVAGLFHDPSIGNPIHITIVRLVLLEDEEEDLKITHHADNTLKSFCKWQKSINMKGDAHPLHHDTAILLTRKDLCAAMNRPCETLGLSHVAGMCQPHRSCSINEDTGLPLAFTVAHELGHSFGIQHDGSGNDCEPVGKRPFIMSPQLLYDAAPLTWSRCSRQYITRFLDRGWGLCLDDPPAKDIIDFPSVPPGVLYDVSHQCRLQYGAYSAFCEDMDNVCHTLWCSVGTTCHSKLDAAVDGTRCGENKWCLSGECVPVGFRPEAVDGGWSGWSAWSICSRSCGMGVQSAERQCTQPTPKYKGRYCVGERKRFRLCNLQACPAGRPSFRHVQCSHFDAMLYKGQLHTWVPVVNDVNPCELHCRPANEYFAEKLRDAVVDGTPCYQVRASRDLCINGICKNVGCDFEIDSGAMEDRCGVCHGNGSTCHTVSGTFEEAEGLGYVDVGLIPAGAREIRIQEVAEAANFLALRSEDPEKYFLNGGWTIQWNGDYQVAGTTFTYARRGNWENLTSPGPTKEPVWIQLLFQESNPGVHYEYTIHREAGGHDEVPPPVFSWHYGPWTKCTVTCGRGVQRQNVYCLERQAGPVDEEHCDPLGRPDDQQRKCSEQPCPARWWAGEWQLCSSSCGPGGLSRRAVLCIRSVGLDEQSALEPPACEHLPRPPTETPCNRHVPCPATWAVGNWSQCSVTCGEGTQRRNVLCTNDTGVPCDEAQQPASEVTCSLPLCRWPLGTLGPEGSGSGSSSHELFNEADFIPHHLAPRPSPASSPKPGTMGNAIEEEAPELDLPGPVFVDDFYYDYNFINFHEDLSYGPSEEPDLDLAGTGDRTPPPHSHPAAPSTGSPVPATEPPAAKEEGVLGPWSPSPWPSQAGRSPPPPSEQTPGNPLINFLPEEDTPIGAPDLGLPSLSWPRVSTDGLQTPATPESQNDFPVGKDSQSQLPPPWRDRTNEVFKDDEEPKGRGAPHLPPRPSSTLPPLSPVGSTHSSPSPDVAELWTGGTVAWEPALEGGLGPVDSELWPTVGVASLLPPPIAPLPEMKVRDSSLEPGTPSFPTPGPGSWDLQTVAVWGTFLPTTLTGLGHMPEPALNPGPKGQPESLSPEVPLSSRLLSTPAWDSPANSHRVPETQPLAPSLAEAGPPADPLVVRNAGWQAGNWSECSTTCGLGAVWRPVRCSSGRDEDCAPAGRPQPARRCHLRPCATWHSGNWSKCSRSCGGGSSVRDVQCVDTRDLRPLRPFHCQPGPAKPPAHRPCGAQPCLSWYTSSWRECSEACGGGEQQRLVTCPEPGLCEEALRPNTTRPCNTHPCTQWVVGPWGQCSGPCGGGVQRRLVKCVNTQTGLPEEDSDQCGHEAWPESSRPCGTEDCEPVEPPRCERDRLSFGFCETLRLLGRCQLPTIRTQCCRSCSPPSHGAPSRGHQRVARR

Common to all, as to assay: AlphaScreen or HTRF
Background: In Alpha technology, singlet oxygen from a donor bead excites a nearby acceptor bead.

The target of assay [1] is T1, TIMP-1-HA (human, UniProt P01033 24-207).
T1 sequence (P01033 24-207): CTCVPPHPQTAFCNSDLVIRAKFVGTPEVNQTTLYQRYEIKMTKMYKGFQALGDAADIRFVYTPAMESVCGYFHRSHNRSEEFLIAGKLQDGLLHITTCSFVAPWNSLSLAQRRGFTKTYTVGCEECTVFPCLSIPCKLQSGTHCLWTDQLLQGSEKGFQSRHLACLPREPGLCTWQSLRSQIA
The target in assay [2] is T1, TIMP-1-HA. The source holds these as a separate data set.
The assay “ADAMTS-7-FLAG” has as its target B1.

For the molecule B1, the “FRET ratio (665/620) with 0 ng untagged TIMP-1” value with TIMP-1-HA [1] was 4950 665/620 ratio. For the same molecule, the “FRET ratio (665/620)” value with TIMP-1-HA [2] is 5480 665/620 ratio.

B2: untagged, recombinant TIMP-1 (natural protein)
chain: not shown
For B2, in the assay with ADAMTS-7-FLAG, the “FRET ratio (665/620) of ADAMTS-7-FLAG and TIMP-1-HA with 400 ng untagged TIMP-1” value is 4420 665/620 ratio; the “FRET ratio (665/620) of ADAMTS-7-FLAG and TIMP-1-HA with 800 ng untagged TIMP-1” value is 3570 665/620 ratio.
